Legend:
[1] = target: cHSP27 C137S (human) (UniProt P04792); test: 15N CPMG relaxation dispersion NMR; cHSP27 (1 mM, reduced with 5 mM BME, 14.1 T only) or C137S (1 mM and 0.3 mM; 25, 30, 35 °C; 11.7 and 14.1 T) in NMR buffer pH 7; global two-state fit; dimer to monomers
[2] = target: cHSP27 C137S (human) (UniProt P04792); test: NMR (1H-15N HSQC, G116 monomer and dimer peak intensities) against pH; [U-15N]-C137S at 250 μM in NMR buffer at pH 7, 25 °C, and separate samples at pH 6.5, 6.0 and 5.0, 1 bar; similar pH titrations on oxidised cHSP27; the rows are for pH 5 / low pH; dimer to monomers
[3] = target: cHSP27 C137S (human) (UniProt P04792); test: high-pressure NMR (1H-15N HSQC); 200 μM [U-15N]-C137S in baroresistant buffer (100 mM Tris-HCl, 100 mM phosphate) pH 7, 25 °C, 14.1 T, 1 to 2500 bar; three-state model (dimer, monomer, unfolded); similar pressure titrations on oxidised cHSP27
[4] = target: cHSP27 C137S (human) (UniProt P04792); test: NMR titration; intensities of the G116 monomer and dimer resonances against protein concentration, pH 7, 1 bar; dimer to monomers
[5] = target: cHSP27(H124K/C137S) (human) (UniProt P04792); test: as above

Kd [1] [µM] | population of the monomer at 1 mM [1] [%] | Kd [2] [µM] | fold increase of Kd at 1600 bar (against 1 bar) [3] [fold] | Kd [4] [µM] | Kd [5] [µM] | Substance
0.5 | 1.5 | 5000 | 10 | 0.7 | – | cHSP27 C137S (from UniProt P04792 84-171) (domain or fragment)
– | – | – | – | – | 1100 | cHSP27(H124K/C137S) (from UniProt P04792 84-171) (domain or fragment)

— publication PMC6403371
